Source: PMC6519983

Biological target: microtubules (MTs) formed in Xenopus egg extracts (Xenopus laevis (endogenous in egg extract))
Assay: TIRF microscopy of GFP-TPX2 on microtubules; endogenous TPX2 immunodepleted and replaced with 20-30 nM (25 nM) GFP-TPX2 in Xenopus egg extract; 10 µM RanQ69L, 0.5 mM vanadate; silane-passivated coverslips; rise of TPX2 intensity at single pixels of individual de novo MTs before the first branch, normalised by the fluorescence of a single GFP-TPX2 molecule

## Full-length TPX2 with N-terminal Strep II-6xHis-GFP-TEV site tags (natural protein)
  binding rate (molecules μm^−1 s^−1): 0.4
